According to article PMC6160062, “Designing antibodies against LRRK2-targeted tau epitopes” (PLoS ONE, 2018):

Molecular target: T1, tau in human tauopathy brain tissue (neurofibrillary tangles) (Homo sapiens, UniProt P10636)
T1 construct: microtubule associated protein tau, human, endogenous in brain; also called NFT tau; tau pathology in AD, FTD and PSP cases; source: endogenous, formalin fixed paraffin embedded human brain tissue (hippocampal region; AD, FTD, PSP cases)
Test: immunostaining of cells or tissue; paraffin sections of mouse brain (rTg4510 and nontransgenic; 4.5, 6, 8.5, 10 months) or of human hippocampal tissue; citrate antigen retrieval; MHT2 overnight; ABC/DAB detection

T1 sequence (P10636 whole entry): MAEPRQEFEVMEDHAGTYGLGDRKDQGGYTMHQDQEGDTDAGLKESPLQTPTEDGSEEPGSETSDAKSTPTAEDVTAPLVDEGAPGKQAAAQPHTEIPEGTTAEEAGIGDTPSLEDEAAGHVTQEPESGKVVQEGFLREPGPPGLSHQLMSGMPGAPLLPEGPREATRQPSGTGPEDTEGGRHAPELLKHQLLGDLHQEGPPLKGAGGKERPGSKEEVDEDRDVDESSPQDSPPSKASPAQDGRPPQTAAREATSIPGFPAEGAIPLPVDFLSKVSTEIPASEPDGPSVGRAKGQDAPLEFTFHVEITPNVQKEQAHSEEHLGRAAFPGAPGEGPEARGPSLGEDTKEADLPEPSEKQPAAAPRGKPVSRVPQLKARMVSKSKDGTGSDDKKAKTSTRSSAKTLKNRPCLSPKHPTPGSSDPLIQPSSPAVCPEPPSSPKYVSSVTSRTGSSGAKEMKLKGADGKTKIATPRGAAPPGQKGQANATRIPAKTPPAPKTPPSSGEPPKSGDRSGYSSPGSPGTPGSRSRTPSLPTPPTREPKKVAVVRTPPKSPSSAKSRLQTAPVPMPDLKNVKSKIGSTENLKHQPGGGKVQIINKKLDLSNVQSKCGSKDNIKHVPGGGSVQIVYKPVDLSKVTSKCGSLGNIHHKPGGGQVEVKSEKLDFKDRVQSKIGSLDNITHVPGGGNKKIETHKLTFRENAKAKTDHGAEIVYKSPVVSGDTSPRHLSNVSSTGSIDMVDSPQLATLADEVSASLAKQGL

binding result: binds
B1: MHT2 monoclonal antibody (antibody, V domains shown)
VH: EVQLQQSGAELVRPGALVKLSCKASGFNIKDYYMHWVKQRPEQGLEWIGWIDPENGNTIYDPKFQGKASITADTSSNTAYLQLSSLTSEDTAVYYCSSYYDYDYWG
VL: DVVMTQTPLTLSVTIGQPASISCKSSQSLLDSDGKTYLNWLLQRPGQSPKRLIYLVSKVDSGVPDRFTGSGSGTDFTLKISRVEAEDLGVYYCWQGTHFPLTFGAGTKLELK
notes: Isotype IgG1; For the BLI experiment only, the antibody was biotinylated with EZ-Link NHS-PEG4 and held on streptavidin sensors; also called antibody MHT2
